Assay results reported in patent US20120021993A1 (AJOU UNIVERSITY INDUSTRY ACADEMIC COOPERATION FOUNDATION, published 2012).
Each block holds one binder with its values, some of them ahead of it.

What was measured:
[1] = target: T1, human-derived cell death receptor 5, extracellular domain (amino acid residues 1-130), 6xHis tag (human, UniProt O14763 56-210); assay: ELISA, homo-dimer against monomer
T1 construct: extracellular domain; Expressed in E. coli; biotinylated for sorting and flow cytometry; also called DR5; TRAIL-receptor 2

[2] = target: T1, human-derived cell death receptor 5, …; assay: ELISA, target coated on the plate
cell surface DR4 = cell surface DR4 (human, UniProt O00220 24-468); assay: cell-based or functional assay
[3] = target: T2, human-derived cell death receptor 4, extracellular domain (amino acid residues 1-216), 6xHis tag (human, UniProt O00220 24-239); assay: affinity ELISA, target coated on the plate
T2 construct: extracellular domain; Expressed in E. coli; biotinylated for sorting and flow cytometry; residues 1-216; also called DR4; TRAIL-receptor 1
Procedure: (§1) In order to measure the affinity and cross reactivity of the anti-DR4, -DR5 and -TNFα protein scaffold variants based on the Kringle domain structure to the target molecules, an enzyme-linked immunosorbent assay (ELISA) was performed. The target molecules DR4, DR5, TNFα and DcR1, DcR2 were attached to a 96 well EIA/RIA plate (COSTARCorning In., USA) by its reaction at 37° C. for 1 hour, and washed three times with 0.1% PBST (0.1% Tween20, pH 7.4, 137 mM NaCl, 10 mM Phosphate, 2.7 mM KCl, SIGMA-ALDRICH Co., USA) for 10 minutes. The target molecules were attached for 1 hour to a 96 well EIA/RIA plate in 1% PBSB (1% BSA, pH 7.4, 137 mM NaCl, 10 mM Phosphate, 2.7 mM KCl, SIGMA-ALDRICH Co., USA), and then washed three times with 0.1% PBST (0.1% Tween 20, pH 7.4, 137 mM NaCl, 10 mM Phosphate, 2.7 mM KCl, SIGMA-ALDRICH Co., USA) for 10 minutes. Then, the anti-DR4, -DR5 and -TNFα Kringle domain variants were bound, and washed three times with 0.1% PBST for 10 minutes. The anti-DR4, -DR5 and -TNFα Kringle domain variants were primarily bound to mouse-derived anti-c-myc 9e10 mAb (Ig Therapy, Korea), and secondarily bound to alkaline phosphatase (AP)-conjugated anti-mouse mAb (Sigma). Each of the Kringle domain variants was reacted with […] (pNPP, Sigma-aldrich Co., USA) and quantified at an absorbance of 405 nm.
(§2) In order to analyze the affinities of the Fc-fused anti-DR4, -DR5 and -TNFα Kringle domains to target molecules, the affinities of the Fc-fused anti-DR4, -DR5 and -TNFα Kringle domains to the target molecules were analyzed using ELISA, as described in Example 8.

DcR1 [4] = target: T3, DcR1 (UniProt O14798 26-221, limits assumed); assay: yeast display, flow cytometry MFI [panel KD548]
T3 sequence (looked up): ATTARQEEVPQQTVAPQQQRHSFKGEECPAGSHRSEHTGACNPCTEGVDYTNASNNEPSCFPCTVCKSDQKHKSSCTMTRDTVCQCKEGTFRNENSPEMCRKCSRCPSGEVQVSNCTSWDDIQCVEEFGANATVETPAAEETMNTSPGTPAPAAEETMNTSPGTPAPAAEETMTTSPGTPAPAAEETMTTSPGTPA

DcR2 [5] = target: T4, DcR2 (UniProt Q9UBN6 56-211, limits assumed); assay: yeast display, flow cytometry MFI [panel KD548]
T4 sequence (looked up): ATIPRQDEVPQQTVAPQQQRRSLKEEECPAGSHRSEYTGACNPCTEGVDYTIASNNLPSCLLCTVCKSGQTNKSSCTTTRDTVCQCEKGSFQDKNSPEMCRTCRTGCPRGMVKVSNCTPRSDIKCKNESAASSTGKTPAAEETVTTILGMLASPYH

[6] = target: T2, human-derived cell death receptor 4, …; assay: ELISA, coated target, A405
[7] = target: T2, human-derived cell death receptor 4, …; assay: ELISA, homo-dimer against monomer
[8] = target: T2, human-derived cell death receptor 4, …; assay: ELISA, target coated on the plate
cell surface DR5 = cell surface DR5 (human, UniProt O14763 56-440); assay: cell-based or functional assay
[9] = target: T1, human-derived cell death receptor 5, …; assay: affinity ELISA, target coated on the plate
Procedure: as §1, §2

DcR1 [10] = target: T3, DcR1; assay: yeast display, flow cytometry MFI [panel KD413]
DcR2 [11] = target: T4, DcR2; assay: yeast display, flow cytometry MFI [panel KD413]
DcR1 [12] = target: T3, DcR1; assay: yeast display, flow cytometry MFI [panel KD415]
DcR2 [13] = target: T4, DcR2; assay: yeast display, flow cytometry MFI [panel KD415]
[14] = target: T5, TNFα, extracellular domain (amino acid residue 1-157), 6xHis tag (human, UniProt P01375 57-233); assay: ELISA, coated target, A405
T5 construct: extracellular domain; Expressed in E. coli; The printed residues 1-157 seem to count on the soluble form, not on the precursor; also called human TNFα; tumor necrosis factor alpha
T5 sequence (P01375 other isoform, or with tags, fused parts or gaps limits assumed): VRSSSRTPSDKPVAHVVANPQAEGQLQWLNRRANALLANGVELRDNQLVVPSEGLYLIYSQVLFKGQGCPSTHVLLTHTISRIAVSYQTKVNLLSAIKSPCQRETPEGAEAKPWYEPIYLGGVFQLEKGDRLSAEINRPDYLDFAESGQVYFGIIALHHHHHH
Procedure: as §1

[15] = target: T2, human-derived cell death receptor 4, …; assay: ELISA, coated target, single binder concentration not given, A405
Procedure: as §1

B1: anti-DR5 KD506 homo-dimer (designed binder)
chain: CPEDRGHEYDGDGDKTNRGHGCQYWDQNKPHHHGHRDKDKFKHRIKKNYCRNPDYETGPWCFTNRYRNKNELCHEPRCGGGGSGGGGSGGGGSGGGGSCPEDRGHEYDGDGDKTNRGHGCQYWDQNKPHHHGHRDKDKFKHRIKKNYCRNPDYETGPWCFTNRYRNKNELCHEPRC
- fold increase of affinity against the monomer [1]: ~10 fold
- affinity value [2]: 31 nM

B2: KD415-Fc (Fc fusion)
chain: CTRSKGDEYDGHKHKTNRGLRCQHWPGTKPHFHGDKIKDRHGFRLKKNYCRNPDPQDQPWCFTNRHQHKNELCNQPRC
notes: Disulfide-linked dimer from Pichia pastoris; also called Fc-fused anti-DR4 Kringle domain KD415; not shown: Fc domain region from a hinge of human immunoglobulin G1
- EC50 (a concentration of protein causing a 50% cell death), HL60, MTT assay (cell surface DR4): 60 nM
- EC50 (a concentration of protein causing a 50% cell death), Jurkat, MTT assay (cell surface DR4): 80 nM
- affinity [3]: 53 nM

- binding result (DcR1 [4]): no binding
- binding result (DcR2 [5]): no binding
B3: L1234 (KD548) (designed binder)
chain: CHQTQGPKYDGNKDKTHKGHKCQSWTKNRPHHHGNKIENEDENRFQKNYCRNPDRELRPWCFTTDPNKRWELCDIPRC
notes: also called KD548L1234

B4: KD413-KD415 hetero-dimer (designed binder, not shown: small tags and cut ends)
chain: CAKAEGTGYDGHEHKTHKGIRCQNWYKSKPHYHGHQFRDGDKIKNKKNYCRNPDPRAGPWCFTHGNRNRYELCNQPRCGGGGSGGGGSGGGGSGGGGSCTRSKGDEYDGHKHKTNRGLRCQHWPGTKPHFHGDKIKDRHGFRLKKNYCRNPDPQDQPWCFTNRHQHKNELCNQPRC
- EC50 (read off the curve) [6]: ~30 nM

B5: anti-DR4 KD413 homo-dimer (designed binder)
chain: CAKAEGTGYDGHEHKTHKGIRCQNWYKSKPHYHGHQFRDGDKIKNKKNYCRNPDPRAGPWCFTHGNRNRYELCNQPRCGGGGSGGGGSGGGGSGGGGSCAKAEGTGYDGHEHKTHKGIRCQNWYKSKPHYHGHQFRDGDKIKNKKNYCRNPDPRAGPWCFTHGNRNRYELCNQPRC
- fold increase of affinity against the monomer [7]: ~10 fold
- affinity value [8]: 43 nM

B6: KD413-Fc (Fc fusion)
chain: CAKAEGTGYDGHEHKTHKGIRCQNWYKSKPHYHGHQFRDGDKIKNKKNYCRNPDPRAGPWCFTHGNRNRYELCNQPRC
notes: Disulfide-linked dimer from Pichia pastoris; also called Fc-fused anti-DR4 Kringle domain KD413; not shown: Fc domain region from a hinge of human immunoglobulin G1
- EC50 (a concentration of protein causing a 50% cell death), Jurkat, MTT assay (cell surface DR4): 60 nM
- affinity [3]: 60 nM

B7: KD506-Fc (Fc fusion)
chain: CPEDRGHEYDGDGDKTNRGHGCQYWDQNKPHHHGHRDKDKFKHRIKKNYCRNPDYETGPWCFTNRYRNKNELCHEPRC
notes: Disulfide-linked dimer from Pichia pastoris; also called Fc-fused anti-DR5 Kringle domain KD506; not shown: Fc domain region from a hinge of human immunoglobulin G1
- EC50 (a concentration of protein causing a 50% cell death), HL60, MTT assay (cell surface DR5): 230 nM
- EC50 (a concentration of protein causing a 50% cell death), Jurkat, MTT assay (cell surface DR5): 80 nM
- affinity [9]: 43 nM

- binding result (DcR1 [10]): no binding
- binding result (DcR2 [11]): no binding
B8: L1234 (KD413) (designed binder)
chain: CAKAEGTGYDGHEHKTHKGIRCQNWYKSKPHYHGHQFRDGDKIKNKKNYCRNPDRELRPWCFTTDPNKRWELCDIPRC
notes: also called KD413L1234

B9: KD548-Fc (Fc fusion)
chain: CHQTQGPKYDGNKDKTHKGHKCQSWTKNRPHHHGNKIENEDENRFQKNYCRNPDNKHEPWCFTHGHRDKHELCHEPRC
notes: Disulfide-linked dimer from Pichia pastoris; also called Fc-fused anti-DR5 Kringle domain KD548; not shown: Fc domain region from a hinge of human immunoglobulin G1
- EC50 (a concentration of protein causing a 50% cell death), HL60, MTT assay (cell surface DR5): 220 nM
- affinity [9]: 58 nM

B10: anti-DR4 KD415 homo-dimer (designed binder)
chain: CTRSKGDEYDGHKHKTNRGLRCQHWPGTKPHFHGDKIKDRHGFRLKKNYCRNPDPQDQPWCFTNRHQHKNELCNQPRCGGGGSGGGGSGGGGSGGGGSCTRSKGDEYDGHKHKTNRGLRCQHWPGTKPHFHGDKIKDRHGFRLKKNYCRNPDPQDQPWCFTNRHQHKNELCNQPRC
- fold increase of affinity against the monomer [7]: ~10 fold
- affinity value [8]: 87 nM

- binding result (DcR1 [10]): no binding
- binding result (DcR2 [11]): no binding
B11: KD413L56 (designed binder)
chain: CMHCSGENYDGKISKTMSGLECQAWDSQSPHAHGYIPSKFPNKNLKKNYCRNPDPRAGPWCFTHGNRNRYELCDIPRC

- binding result (DcR1 [4]): no binding
- binding result (DcR2 [5]): no binding
B12: KD548L56 (designed binder)
chain: CMHCSGENYDGKISKTMSGLECQAWDSQSPHAHGYIPSKFPNKNLKKNYCRNPDNKHEPWCFTHGHRDKHELCDIPRC

- binding result (DcR1 [12]): no binding
- binding result (DcR2 [13]): no binding
B13: L56 (KD415) (designed binder)
chain: CMHCSGENYDGKISKTMSGLECQAWDSQSPHAHGYIPSKFPNKNLKKNYCRNPDPQDQPWCFTNRHQHKNELCDIPRC
notes: also called KD415L56

- binding result (DcR1 [10]): no binding
- binding result (DcR2 [11]): no binding
B14: L5 (KD413) (designed binder)
chain: CMHCSGENYDGKISKTMSGLECQAWDSQSPHAHGYIPSKFPNKNLKKNYCRNPDPRAGPWCFTTDPNKRWELCDIPRC
notes: also called KD413L5

- binding result (DcR1 [10]): no binding
- binding result (DcR2 [11]): no binding
B15: L567 (KD413) (designed binder)
chain: CMHCSGENYDGKISKTMSGLECQAWDSQSPHAHGYIPSKFPNKNLKKNYCRNPDPRAGPWCFTHGNRNRYELCNQPRC
notes: also called KD413L567

- binding result (DcR1 [4]): no binding
- binding result (DcR2 [5]): no binding
B16: L567 (KD548) (designed binder)
chain: CMHCSGENYDGKISKTMSGLECQAWDSQSPHAHGYIPSKFPNKNLKKNYCRNPDNKHEPWCFTHGHRDKHELCHEPRC
notes: also called KD548L567; not shown: Aga2p display anchor, linker and c-myc tag of the pCTCON yeast display vector

B17: KDT02 (designed binder)
chain: CAQDGGPGYDGDKHGTHGGHECQDWTKDGPHIHGFRDQFRDEDQHGKNYCRNPDSQHGPWCFTNEDEHRNELCHEPRC
notes: Soluble monomer from Pichia pastoris; also called KRT02; not shown: C-terminal myc tag-6xHis tag of pPICZaA
- EC50 (read off the curve) [14]: ~2000 nM
- binding result [15]: no binding

B18: KDT01 (designed binder)
chain: CYEDKGPQYDGDEYGTHKGHRCQNWDENRPHPHGIGHQHKHQVKDGKNYCRNPDDETEPWCFTHKDKYGHELCNRPRC
notes: Soluble monomer from Pichia pastoris; also called KRT01; not shown: C-terminal myc tag-6xHis tag of pPICZaA
- EC50 (read off the curve) [14]: ~2000 nM
- binding result [15]: no binding
